Consider one protein from article PMC10666096 (Proceedings of the National Academy of Sciences of the …, 2023).

The data set deals with the molecule itself. The experiment in a line: single-molecule photobleaching analysis.

B1: Cyanine-5 labeled N43S Fluc-Bpe (natural protein, Bordetella pertussis)
chain: MLTYAPLNFIAIGIGATLGAWLRWVLGLKLNGAGWPWGTLTASLVGGYLIGVMVALIASHPEWPAWIRLAAVTGFLGGLTTFSTFSAETVDMLSRGVYATAAAYAGASLAGSLAMTGLGLATVRLLLC
modifications: Cy5 (Cyanine5-maleimide) on the cysteine of R128C
For B1, the “stoichiometry N” value amounted to 2.
